# In the supplement of paper PMC10567573:
# B1: ATL3 (parent)
# chain: FSFRYQQELEEEIKELYENFCKHN
# Variants of: B1
# Assay: protein stability index of a GFP-peptide fusion (GPS, HEK-293T) (PSI 1-6); higher = more stable
# Conditions: c terminus: a fixed tail appended
# 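Also: lentivirally expressed fusions sorted by FACS into six bins by GFP to DsRed ratio, PSI derived from sequencing read proportions per bin multiplied by bin number.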
row,Variant,protein stability index
1,FSFRYQQELEEEIKYLYENFCKHN [E15Y],1.8
2,FSFRYQQELEEEIKWLYENFCKHN [E15W],2.29
3,FSFRYQQELEEEIKELYELFCKHN [N19L],1.98
4,FSFRYQQELEEEIKELYEFFCKHN [N19F],1.72
5,FSFRYQQELEEEIKELYEWFCKHN [N19W],1.73
6,FSFRYQQELEEEIKELYEDFCKHN [N19D],1.44
7,FSFRYQQELEEEIKELYEVFCKHN [N19V],1.81
8,FSFRYQQELEEEIKELYEMFCKHN [N19M],1.66
9,FSFRYQQELEEEIKELYEIFCKHN [N19I],2.04
10,FSFRYQQELEEEIKELYEQFCKHN [N19Q],2.04
11,FSFRYQQELEEEIKELYEKFCKHN [N19K],1.92
12,FSFRYQQELEEEIKELYECFCKHN [N19C],2.02
13,FSFRYQQELEEEIKELYEHFCKHN [N19H],1.97
14,FSFRYQQELEEEIKELYEPFCKHN [N19P],2.16
15,FSFRYQQELEEEIKELYEYFCKHN [N19Y],1.89
16,FSFRYQQELEEEIKELYESFCKHN [N19S],2.41
17,FSFRYQQELEEEIKELYERFCKHN [N19R],2.31
18,FSFRYQQELEEEIKELYEAFCKHN [N19A],2.28
19,FSFRYQQELEEEIKELYEEFCKHN [N19E],2.06
20,FSFRYQQELEEEIKELYEGFCKHN [N19G],1.73
21,FSFRYQQELEEEIKELYETFCKHN [N19T],1.99
22,FSFRYQQELEEEIKELYENNCKHN [F20N],2.61
23,FSFRYQQELEEEIKELYENACKHN [F20A],2.83
24,FSFRYQQELEEEIKELYENRCKHN [F20R],2.8

row,Variant,protein stability index
1,FSFRYQQELEEEIKELYENPCKHN [F20P],2.5
2,FSFRYQQELEEEIKELYENSCKHN [F20S],3.01
3,FSFRYQQELEEEIKELYENVCKHN [F20V],2.02
4,FSFRYQQELEEEIKELYENLCKHN [F20L],2.19
5,FSFRYQQELEEEIKELYENMCKHN [F20M],2.17
6,FSFRYQQELEEEIKELYENGCKHN [F20G],2.81
7,FSFRYQQELEEEIKELYENCCKHN [F20C],2.66
8,FSFRYQQELEEEIKELYENTCKHN [F20T],2.41
9,FSFRYQQELEEEIKELYENHCKHN [F20H],2.73
10,FSFRYQQELEEEIKELYENKCKHN [F20K],2.81
11,FSFRYQQELEEEIKELYENICKHN [F20I],1.71
12,FSFRYQQELEEEIKELYENDCKHN [F20D],2.62
13,FSFRYQQELEEEIKELYENECKHN [F20E],3.58
14,FSFRYQQELEEEIKELYENQCKHN [F20Q],2.55
15,FSFRYQQELEEEIKEGYENFCKHN [L16G],3.3
16,FSFRYQQELEEEIKERYENFCKHN [L16R],2.71
17,FSFRYQQELEEEIKEVYENFCKHN [L16V],2.28
18,FSFRYQQELEEEIKEFYENFCKHN [L16F],2.62
19,FSFRYQQELEEEIKEHYENFCKHN [L16H],3.48
20,FSFRYQQELEEEIKETYENFCKHN [L16T],2.5
21,FSFRYQQELEEEIKENYENFCKHN [L16N],2.86
22,FSFRYQQELEEEIKEMYENFCKHN [L16M],3.39
23,FSFRYQQELEEEIKEPYENFCKHN [L16P],3
24,FSFRYQQELEEEIKECYENFCKHN [L16C],2.42

row,Variant,protein stability index
1,FSFRYQQELEEEIKEIYENFCKHN [L16I],2.59
2,FSFRYQQELEEEIKESYENFCKHN [L16S],2.79
3,FSFRYQQELEEEIKEWYENFCKHN [L16W],2.03
4,FSFRYQQELEEEIKEAYENFCKHN [L16A],2.56
5,FSFRYQQELEEEIKEYYENFCKHN [L16Y],2.13
6,FSFRYQQELEEEIKEKYENFCKHN [L16K],3.02
7,FSFRYQQELEEEIKEDYENFCKHN [L16D],3.13
8,FSFRYQQELEEEIKEEYENFCKHN [L16E],3.18
9,FSFRYQQELEEEIKEQYENFCKHN [L16Q],4.14
10,FSFRYQQELEEEIKELYSNFCKHN [E18S],1.91
11,FSFRYQQELEEEIKELYVNFCKHN [E18V],3.55
12,FSFRYQQELEEEIKELYQNFCKHN [E18Q],1.8
13,FSFRYQQELEEEIKELYFNFCKHN [E18F],1.21
14,FSFRYQQELEEEIKELYCNFCKHN [E18C],1.57
15,FSFRYQQELEEEIKELYPNFCKHN [E18P],1.77
16,FSFRYQQELEEEIKELYTNFCKHN [E18T],2.52
17,FSFRYQQELEEEIKELYANFCKHN [E18A],2.19
18,FSFRYQQELEEEIKELYDNFCKHN [E18D],2.6
19,FSFRYQQELEEEIKELYYNFCKHN [E18Y],2.15
20,FSFRYQQELEEEIKELYINFCKHN [E18I],2.28
21,FSFRYQQELEEEIKELYNNFCKHN [E18N],2.15
22,FSFRYQQELEEEIKELYKNFCKHN [E18K],1.72
23,FSFRYQQELEEEIKELYLNFCKHN [E18L],1.55
24,FSFRYQQELEEEIKELYWNFCKHN [E18W],1.34

row,Variant,protein stability index
1,FSFRYQQELEEEIKELYRNFCKHN [E18R],1.96
2,FSFRYQQELEEEIKELYMNFCKHN [E18M],2.27
3,FSFRYQQELEEEIKELYHNFCKHN [E18H],1.89
4,FSFRYQQELEEEIKELMENFCKHN [Y17M],2.68
5,FSFRYQQELEEEIKELRENFCKHN [Y17R],2.73
6,FSFRYQQELEEEIKELPENFCKHN [Y17P],4.27
7,FSFRYQQELEEEIKELWENFCKHN [Y17W],2.48
8,FSFRYQQELEEEIKELCENFCKHN [Y17C],3.09
9,FSFRYQQELEEEIKELSENFCKHN [Y17S],3.49
10,FSFRYQQELEEEIKELQENFCKHN [Y17Q],4.02
11,FSFRYQQELEEEIKELNENFCKHN [Y17N],3.09
12,FSFRYQQELEEEIKELGENFCKHN [Y17G],4.22
13,FSFRYQQELEEEIKELVENFCKHN [Y17V],3.33
14,FSFRYQQELEEEIKELHENFCKHN [Y17H],3.05
15,FSFRYQQELEEEIKELIENFCKHN [Y17I],2.92
16,FSFRYQQELEEEIKELLENFCKHN [Y17L],2.36
17,FSFRYQQELEEEIKELDENFCKHN [Y17D],2.92
18,FSFRYQQELEEEIKELAENFCKHN [Y17A],3.16
19,FSFRYQQELEEEIKELFENFCKHN [Y17F],2.16
20,FSFRYQQELEEEIKELEENFCKHN [Y17E],3.97
21,FSFRYQQELEEEIKELKENFCKHN [Y17K],2.89
22,FSFRYQQELEEEIKELTENFCKHN [Y17T],3.76
